The source of these data is patent US20220273810A1 (IMCARE BIOTECH, published 2022).

B1: IM-E2 (antibody, V domains shown)
VH: QSVKESEGGLFKPTDTLTLTCTVSGFSLSAYAISWVRQAPGNGLEWIGAINSGGSAYYANWAKSRSTITRNTNLNTVTLKMTSLTAADTATYFCAREDIYDYGGAFDPWGPGTLVTVST
VL: AYDMTQTPASVEVTVGGTVTIKCQASQGISSYLSWYQQKPGQPPKLLIYAATTLVSGVSSRFKGSGSGTQFTLTISGVECADAATYYCQQDYTTSNVDNTFGGGTEVVVKG
notes: Rabbit monoclonal antibody
B2: IM-D3 (antibody, V domains shown)
VH: QSVKESEGGLFKPTDTLTLTCTVSGFSLSSYAIGWVRQAPGNGLEWIGTIVTSGIPYYANWAKSRSTITRNTNLNTVTLKMTSLTAADTATYFCARNLDPAYSTTRLDLWGQGTLVTVSS
VL: AYDMTQTPASVSEPVRGTVTIKCQASQSISTALAWYQQKPGQPPKLLIYAASYLASGVPSRFSGSGSGTEFTLTISDLECADAATYYCHQGYSASNVDNTFGGGTEGGVKG
notes: Rabbit monoclonal antibody
B3: IM-B10 (antibody, V domains shown)
VH: QSVKESEGGLFKPTDTLTLTCTVSGFSLSSYGVSWVRQAPGKGLEWIGSIWSGGTTDYASWAKSRSTITRNTNENTVTLKVTSLTAADTATYFCARGGYDYGYASNIWGPGTLVTVSS
VL: AYDMTQTPASVEVAVGGTVTIKCQASESISSYLSWYQQKPGQPPKLLIYRASTLASGVPSRFSGSGSGTEFTLTISDGQCDDAATYYCQQGYSVSNVDNIFGGGTEVVVKG
notes: Rabbit monoclonal antibody; also called IM4-B10
B4: IM-C6 (antibody, V domains shown)
VH: QSVKESEGGLFKPTDALTLTCTVSGFSLSSYAISWVRQAPGSGLEWIGAINTYGGTYYASWAKSRSTITRNTNENTVTLKMTSLTAADTATYFCARDFDSDAYTSASGGMDPWGPGTLVTVSS
VL: AYDMTQTPASVEVAVGGTVTIKCQASQSINNYLSWYQQIPGQPPKLLIYRASTLASGVSSRFKGSGSGTQFTLTISGVQCADAATYYCQQGYTSNVDNVFGGGTEVVVKG
notes: Rabbit monoclonal antibody
B5: IM-G6 (antibody, V domains shown)
VH: QSVKESEGGLFKPTDTLTLTCTVSGFSLSSYPISWVRQAPGNGLEWIGDIYASGSILYASWATGRSTITRNTNLNTVTLKMTSLTAADTATYFCARVSYSGGTDIWGPGTLVTVSS
VL: AYDMTQTPASVEVAVGGTVTIKCQASEDIESYLAWYQQKPGQPPKLLIYRASTLPSGVPSRFKGSGSGTEFTLTISDLECADAATYYCQQDYSSSNVDNTFGGGTEVVVKG
notes: Rabbit monoclonal antibody
B6: IM-G7 (antibody, V domains shown)
VH: QSVKESEGGLFKPTDTLTLTCTVSGFSLSSNVISWVRQAPGKGLEWIGDIYVSGNTDYASWAKSRSTITRNANLNTVTLKMTSLTAADTATYFCARYDMSSDAFDPWGPGTLVTVSS
VL: AYDMTQTPASVEVAVGGTVTIKCQASQNIGSYLSWYQHKPGQRPRLLMYRASTLASGVSSRFKGSGSGTEFTLTISGVQCDNAATYYCQQGYTNSGVDNTFGGGTEVVVKG
notes: Rabbit monoclonal antibody
B7: IM-A6 (antibody, V domains shown)
VH: QSVKESEGGLFKPTDTLTLTCTVSGFSLSSYAISWVRQAPGNGLEWIGRINSGGATDYASWARSRSTITRDTNLNTVTLQMTSLTAADTATYFCAKEEYSYGGAYGMWGPGTLVTVSS
VL: AYDMTQTPASVSAAVGGTVTIKCQASESISTYLSWLQQKPGQPPKLLIYKASTLASGVPSRFKGSGSGTEFTLTISGVQCDDAATYYCQQDYTISNVGNVFGGGTEVVVKG
notes: Rabbit monoclonal antibody; also called I-A6
B8: IM-F5 (antibody, V domains shown)
VH: QSVKESEGGLFKPTDTLTLTCTVSGFSLSIYGVSWVRQAPGNGLEWIGIIYASGSADYASWAKSRSTITRNTNLNTVTLKMTSLTAADTATYFCAREDDTYGYTSSIWGPGTLVTVSS
VL: AYDMTQTPASVSAAVGGTVTIKCQASQSISSYLNWYQQKPGQPPKRLIYRASTLASGVSSRFKGSGSGTQFTLTISGVECADAATYYCQQDYSSNNIDNTFGGGTEVVVKG
notes: Rabbit monoclonal antibody
B9: IM-D5 (antibody, V domains shown)
VH: QSVKESEGGLFKPTDTLTLTCTVSGFSLSSYAISWVRQAPGNGLEWIGAIGKSGSAYYASWAKSRSTITRNTNLNTVSLKMTSLTAADTATYFCARWDSVGWTDARLDLWGQGTLVTVSS
VL: AYDMTQTPASVEVAVGGTVTIKCQASQSISTALAWYQQKPGQRPKLLIYGASKLASGVSSRFSGSGSGTEFTLTISGVECADAATYYCQQGYETSNVDNAFGGGTEVVVKG
notes: Rabbit monoclonal antibody
B10: IM-A1 (antibody, V domains shown)
VH: QSVKESEGGLFKPTDTLTLTCTVSGFSLSSNAISWVRQAPGNGLEWIGAIGSSGSTYYASWAKSRSTVTRNTNLNTVTLKMTSLTAADTATYFCARWENIGYTNVRLDLWGQGTLVTVSS
VL: AYDMTQTPASVEVAVGGTVTIKCQASQSISTALAWYQQKPGQPPKLLIYGASTLASGVSSRFKGSGSGTQFTLTISGVECADAATYYCQQGYSTSDVDNAFGGGTEG
notes: Rabbit monoclonal antibody; also called I-A1

The first assay deals with AS-SPIK (Abnormal Secreted serine protease inhibitor Kazal) (Homo sapiens (Human)) (UniProt P00995). The assay can be described thus: sandwich ELISA, HCC patient serum (serum AS-SPIK), complex captured on polyclonal anti-SPIK plate, anti-rabbit-HRP/TMB. (In an ELISA, binding on a coated surface is turned into a signal by an enzyme label.)
Turning to B1, the OD turned out to be 1.48 OD.

For the next assay, the target named is T1, NS-SPIK (Normal Secreted serine protease inhibitor Kazal) (Homo sapiens (Human), UniProt P00995 24-79).
T1 construct: also called Normal Secreted SPIK
T1 sequence: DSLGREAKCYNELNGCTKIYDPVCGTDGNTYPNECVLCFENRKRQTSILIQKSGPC
The assay can be described thus: ELISA on a plate immobilised with NS-SPIK from pancreatic cells, OD450nm; antibody concentration not given. How it is done: Ten monoclonal antibodies described here were generated from rabbit. Briefly, rabbit were immunized with the recombinant AS-SPIK which contain different subsets of 23 extra amino acids (SEQ ID NO: 81). The blood was tested after three or four time imbursements by ELISA. Briefly, blood from immunized rabbits were reacted with plate coated with recombinant AS-SPIK. After washing, the color was developed by incubation of the plate with an anti-rabbit antibody labeled with HRP (horseradish peroxidase), and the optical density was measured after reaction with substrate TMB. The rabbit which is positive in test (produced antibody) was sacrificed. The monoclonal antibody was then established and further screened with ELISA using the plates immobilized with partially purified AS-SPIK from S2-3 cells, a cell line expresses high amount of AS-SPIK by integrated entire SPIK gene, Lu et. al Tumor-associated protein SPIK TATI suppresses serine protease dependent cell apoptosis, Apoptosis, 2008 13(4), 483-494 and NS—SPIK from pancreatic cells. Finally, 10 monoclonal antibodies which strongly bind AS-SPIK but not NS-SPIK were selected.
As for B2, the binding result is “no binding”.
Still for that read-out and setting: for B3 the value was “no binding”.
The same measure, in the same setting: to B4 belongs “no binding”; to B5, “no binding”; to B6, “no binding”.
For B1, the binding result is reported as “no binding”.
As for B7, the binding result is given as “no binding”.
As for B8, the binding result is reported as “no binding”.
With B9, the binding result is “no binding”.
Regarding B10, the binding result was “no binding”.

Another assay deals with AS-SPIK (Abnormal Secreted serine protease inhibitor Kazal) (Homo sapiens (Human)) (UniProt P00995). The experiment in a line: sandwich ELISA, S2-3 medium, complex captured on polyclonal anti-SPIK plate, anti-rabbit-HRP/TMB.
In turn, B1 displayed an OD of 1.39 OD.
